Source: paper PMC4545359

Biological target: T1, CRP-His6 (cAMP receptor protein) (Vibrio cholerae C6706) (UniProt O34015)
T1 sequence: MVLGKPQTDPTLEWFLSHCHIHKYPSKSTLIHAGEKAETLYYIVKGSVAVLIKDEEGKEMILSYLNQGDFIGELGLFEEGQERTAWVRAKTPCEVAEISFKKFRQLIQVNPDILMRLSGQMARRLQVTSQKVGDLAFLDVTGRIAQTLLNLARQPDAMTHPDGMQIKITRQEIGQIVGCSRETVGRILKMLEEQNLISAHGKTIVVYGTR
Test: EMSA
Settings: 10 mM Tris pH 7.5, 1 mM EDTA, 100 mM KCl, 0.1 mM DTT, 5% glycerol, 0.01 mg/ml BSA; CRP 11 ng/ul, promoter DNA 2.5 ng/ul, 75 ng NS DNA; 1 h at room temperature …

## CAGTGGATTAGCGTATGGACACGGCTACGTTTCCGCAGTGGAAAACGGTGTCGCCGAAGGACGTGTCACCTTGTGTAAATTTGCCGCTAACGGCACTGGAAAAAAAAACACTCACTGTGGCGCGATTCAATAC (double strand) [non-specific control 133 bp fragment (NS)]
  binding: no binding
